Assay results as given in patent publication CN112778416A (KANGYUAN MEDICAL TECH DALIAN CO LTD, dated 2021).
Changes are numbered by the printed parent chain.

B1: 纳米抗体CNb20-1 (VHH)
VHH: QVQLQESGGGSVQAGGSLRLSCAASSGILEIFNAMAWFRQAPGKEREWVARIMGSPYGSTEYYADSVKGRFTFSQDNAKNTVYLQMDSLEPEDTATYYCHSAGYDPRGDDYWGQGTQVTVSS
B2: 人源化纳米抗体hCNb20-1 (VHH)
VHH: B1 VHH with Q1E, Q5V, A36S, A50S, R51A, E90R, Q117L
notes: Humanised variant of CNb20-1, purified on Ni Sepharose
B3: 人源化二价多肽hbvCNb20-1 (VHH)
chain: EVQLVESGGGSVQAGGSLRLSCAASSGILEIFNAMSWFRQAPGKEREWVSAIMGSPYGSTEYYADSVKGRFTFSQDNAKNTVYLQMDSLRPEDTATYYCHSAGYDPRGDDYWGQGTLVTVSSGGGGSGGGGSGGGGSEVQLVESGGGSVQAGGSLRLSCAASSGILEIFNAMSWFRQAPGKEREWVSAIMGSPYGSTEYYADSVKGRFTFSQDNAKNTVYLQMDSLRPEDTATYYCHSAGYDPRGDDYWGQGTLVTVSS
B4: 纳米抗体CNb20-2 (VHH)
VHH: QVQLVESAGGLVQPGGSLRLSCAASGRFTGGSPMGWYRQAPGKRRELVADIMGRGGSNTYADSVKGRFTISRDNAKNTVYLQMNSLKPEDTAVYYCAEAERVSGLLLEVVAEPRGDDYWGQGTQVTVSS

Experiments:
白介素-6 (IL-6) [1] = molecular target: T1, 白介素-6 (IL-6) (UniProt P05231 30-212); assay: SPR, IL-6 amine-coupled to CM5 chip, nanobody injected
T1 construct: also called Interleukin-6; 抗原IL-6

白介素-6 (IL-6) [2] = molecular target: T1, 白介素-6 (IL-6); assay: SPR, IL-6 amine-coupled to CM5 chip, polypeptide injected

Binder | Kd (白介素-6 (IL-6) [1]) [nM] | Kd (白介素-6 (IL-6) [2]) [nM] | koff (白介素-6 (IL-6) [2]) [s⁻¹]
B1 | 0.0111 | – | –
B2 | 0.0995 | – | –
B3 | – | 0.0807 | 0.000184
B4 | 0.0423 | – | –
